# Results: the Immune Epitope Database (IEDB)
# How the values were obtained:
# HLA-A*01:01 = experiment: IEDB peptide-MHC binding, purified MHC/direct/fluorescence; filed as Kd, often an IC50 or EC50 that approximates it; ≥ and ≤ were set here for values at or beyond the usual limits of such assays; conditions: source organism: Yersinia pestis
# HLA-A*69:01 = experiment: as above
# HLA-A*02:01 [1] = experiment: IEDB peptide-MHC binding, purified MHC/competitive/fluorescence; ≥ and ≤ were set here for values at or beyond the usual limits of such assays
# HLA-A*30:01 = experiment: IEDB peptide-MHC binding, purified MHC/competitive/radioactivity; filed as Kd, often an IC50 or EC50 that approximates it; ≥ and ≤ were set here for values at or beyond the usual limits of such assays
# HLA-A*26:01 [2] = experiment: as above
# HLA-A*02:01 [3] = experiment: IEDB peptide-MHC binding, purified MHC/direct/fluorescence; filed as Kd, often an IC50 or EC50 that approximates it; ≥ and ≤ were set here for values at or beyond the usual limits of such assays
# HLA-A*26:01 [4] = experiment: as above; conditions: source organism: Mycobacterium tuberculosis
# HLA-A*02:01 [5] = experiment: IEDB peptide-MHC binding, purified MHC/competitive/fluorescence; filed as Kd, often an IC50 or EC50 that approximates it; ≥ and ≤ were set here for values at or beyond the usual limits of such assays
# HLA-A*30:02 = experiment: IEDB peptide-MHC binding, purified MHC/competitive/radioactivity; filed as Kd, often an IC50 or EC50 that approximates it; ≥ and ≤ were set here for values at or beyond the usual limits of such assays
# HLA-A*03:01 [6] = experiment: IEDB peptide-MHC binding, purified MHC/direct/fluorescence; filed as Kd, often an IC50 or EC50 that approximates it; ≥ and ≤ were set here for values at or beyond the usual limits of such assays
# HLA-B*15:01 = experiment: as above
# HLA-B*07:02 = experiment: as above; conditions: source organism: Human immunodeficiency virus type 1 (STRAIN UGANDAN / ISOLATE U455)
# HLA-A*24:02 = experiment: IEDB peptide-MHC binding, purified MHC/competitive/radioactivity; filed as Kd, often an IC50 or EC50 that approximates it; ≥ and ≤ were set here for values at or beyond the usual limits of such assays; conditions: source organism: Dengue virus 3 Martinique/1243/1999
# HLA-B*27:05 = experiment: IEDB peptide-MHC binding, purified MHC/direct/fluorescence; filed as Kd, often an IC50 or EC50 that approximates it; ≥ and ≤ were set here for values at or beyond the usual limits of such assays; conditions: source organism: SARS-CoV1
# HLA-A*11:01 = experiment: as above; conditions: source organism: SARS-CoV1
# HLA-B*58:01 = experiment: as above
# HLA-A*03:01 [7] = experiment: IEDB peptide-MHC binding, purified MHC/competitive/radioactivity; filed as Kd, often an IC50 or EC50 that approximates it; ≥ and ≤ were set here for values at or beyond the usual limits of such assays; conditions: source organism: Dengue virus 1 Brazil/97-11/1997
# HLA-B*40:01 = experiment: IEDB peptide-MHC binding, purified MHC/direct/fluorescence; filed as Kd, often an IC50 or EC50 that approximates it; ≥ and ≤ were set here for values at or beyond the usual limits of such assays; conditions: source organism: Mycobacterium tuberculosis
# [8] = source organism: Zaire ebolavirus
# [9] = source organism: Dengue virus 2 Jamaica/1409/1983
# [10] = source organism: Dengue virus 3 Martinique/1243/1999
# [11] = source organism: Mycobacterium tuberculosis variant bovis
# [12] = source organism: Sudan ebolavirus
# [13] = source organism: Yersinia pestis
# [14] = source organism: Francisella tularensis subsp. holarctica LVS
# [15] = source organism: Mammarenavirus guanaritoense
# [16] = source organism: Dengue virus 1 Brazil/97-11/1997
# [17] = source organism: Vaccinia virus WR
# [18] = source organism: Vaccinia virus Copenhagen
# [19] = source organism: Shigella boydii
# [20] = source organism: Dengue virus 4 Philippines/H241/1956
# [21] = source organism: Vaccinia virus
# [22] = source organism: Bacillus anthracis
# [23] = source organism: Human immunodeficiency virus 1
sequence,measurement,setting,value
AINGFVLPK,Kd,HLA-A*01:01,≥ 20000 nM
AMLHWSLIL,Kd,HLA-A*69:01; source organism: Yellow fever virus 17D,≥ 20000 nM
AMVQVHSQG,IC50,HLA-A*02:01 [1]; [8],≥ 102000 nM
DEAHFTDPAS,Kd,HLA-A*30:01; [9],13900 nM
DTGEESASS,IC50,HLA-A*02:01 [1]; [8],≥ 425000 nM
EIPLQWIASA,Kd,HLA-A*26:01 [2]; [10],2620 nM
ELRGLLKDV,Kd,HLA-A*02:01 [3]; [11],≥ 20000 nM
same,Kd,HLA-A*69:01; [11],13000 nM
ETLQRKYGGA,Kd,HLA-A*26:01 [2]; [9],311 nM
EVSARIAAL,Kd,HLA-A*26:01 [4],12.4 nM
EVSTAIAAL,Kd,HLA-A*26:01 [4],12.2 nM
FIDNPLPNQ,IC50,HLA-A*02:01 [1]; [12],28100 nM
FIPENQRTV,IC50,HLA-A*02:01 [1]; source organism: Human alphaherpesvirus 1 strain 17,4220 nM
FLEQGGFKA,Kd,HLA-A*02:01 [3]; [13],64.3 nM
same,Kd,HLA-A*69:01; [13],1990 nM
FLHEDTEKI,Kd,HLA-A*02:01 [5]; source organism: unidentified,20 nM
FLIDLAFLI,Kd,HLA-A*02:01 [3]; source organism: Camelpox virus M-96,3 nM
FSTLDKITD,IC50,HLA-A*02:01 [1]; source organism: Variola virus,53600 nM
FSYGTLIID,IC50,HLA-A*02:01 [1]; source organism: Variola virus,≥ 283000 nM
FTLDADLGI,Kd,HLA-A*02:01 [3]; [14],8.2 nM
same,Kd,HLA-A*69:01; [14],2.2 nM
FVTLITGNM,Kd,HLA-A*26:01 [2]; [9],1390 nM
GHHTNFESF,Kd,HLA-A*26:01 [2]; [15],≥ 77900 nM
same,Kd,HLA-A*30:02; [15],3830 nM
GLGSFVARK,Kd,HLA-A*03:01 [6]; source organism: Escherichia coli,209 nM
GLPPGTPAV,Kd,HLA-A*02:01 [3]; source organism: Mycobacterium tuberculosis,27.8 nM
GRLITANPIV,Kd,HLA-A*30:01; [16],≥ 57100 nM
GSRVRNIIA,Kd,HLA-A*30:01; [17],8.85 nM
GVFPVSIPIT,Kd,HLA-A*30:01; [9],7360 nM
HAVYSIVFV,Kd,HLA-A*30:01; [17],591 nM
HIFYQLANV,Kd,HLA-A*30:01; [17],60.4 nM
HKIMASENS,IC50,HLA-A*02:01 [1]; [8],≥ 253000 nM
HLSNSFFIK,Kd,HLA-A*30:01; [17],17.3 nM
HPDIVIYQY,Kd,HLA-B*15:01; source organism: Human immunodeficiency virus type 1 (STRAIN UGANDAN / ISOLATE U455),1510 nM
same,Kd,HLA-B*07:02,13000 nM
HVYDFEPYY,Kd,HLA-A*30:01; [17],27.4 nM
IIKSPYMFA,Kd,HLA-A*30:01; [18],6.42 nM
IPLGVIHNS,IC50,HLA-A*02:01 [1]; [8],≥ 185000 nM
ITEAELTGY,Kd,HLA-A*26:01 [2]; [9],8270 nM
same,Kd,HLA-A*30:02; [9],9.47 nM
KAELEEGVY,Kd,HLA-A*30:02; [10],≥ 52800 nM
KHGEYAPFA,IC50,HLA-A*02:01 [1]; [8],28300 nM
KHMIAGVFF,Kd,HLA-A*24:02,837 nM
KLPRWIFFA,Kd,HLA-A*02:01 [3]; [19],1.5 nM
same,Kd,HLA-A*69:01; [19],951 nM
KMKELSPRW,Kd,HLA-B*15:01; source organism: SARS-CoV1,1200 nM
same,Kd,HLA-A*03:01 [6]; source organism: SARS-CoV1,5750 nM
same,Kd,HLA-B*27:05,5250 nM
same,Kd,HLA-A*11:01,≥ 30200 nM
same,Kd,HLA-B*58:01; source organism: SARS-CoV1,420 nM
KQKMGPIYA,Kd,HLA-A*30:01; [17],21.7 nM
KQSQSYLTK,Kd,HLA-A*30:01; [17],158 nM
KSLYSHQLV,Kd,HLA-A*30:01; [17],12.3 nM
KVMFVIRFK,Kd,HLA-A*30:01; [17],0.597 nM
KVSPPSLGK,Kd,HLA-A*30:01; [17],1.12 nM
LARWSSFKK,Kd,HLA-A*03:01 [7],171 nM
same,Kd,HLA-A*30:01; [16],6.79 nM
LEYDGFADF,Kd,HLA-B*40:01,42.4 nM
LFVVTLIPLC,Kd,HLA-A*30:01; [20],414 nM
LLSQYVDDA,IC50,HLA-A*02:01 [1]; [21],23300 nM
LLYKQLNFT,Kd,HLA-A*02:01 [3]; [22],1180 nM
same,Kd,HLA-A*69:01; [22],≥ 20600 nM
LSNGMLRFA,IC50,HLA-A*02:01 [1]; [21],5560 nM
MNAPDDLVL,IC50,HLA-A*02:01 [1]; [8],≥ 162000 nM
MTSLSAVSV,Kd,HLA-A*30:01; [17],887 nM
NANPDCKTI,Kd,HLA-B*58:01; [23],9310 nM
same,Kd,HLA-A*69:01; [23],7640 nM
NASQHPQQV,Kd,HLA-A*69:01; source organism: Salmonella enterica subsp. enterica serovar Typhimurium,571 nM
NLHYWTAQE,IC50,HLA-A*02:01 [1]; [12],≥ 189000 nM
NLWNGIVPT,Kd,HLA-A*02:01 [5]; [18],0.2 nM
NQDGLICGL,IC50,HLA-A*02:01 [1]; [8],28400 nM
NQRETTVVW,Kd,HLA-B*15:01; source organism: Pseudomonas aeruginosa,133 nM
QKATLTEGVY,Kd,HLA-A*30:02; [20],15.6 nM
QLSDHPMVK,Kd,HLA-A*03:01 [6]; source organism: Vibrio parahaemolyticus,146 nM
RFLTIPPTA,Kd,HLA-A*30:01; [9],60.5 nM
RIRQGKFIK,Kd,HLA-A*30:01; [17],4.79 nM
